Values joined by “and” are separate entries in the source; they are usually repeats but may differ in a detail not shown here. Equal entries are not always repeated. One block for each molecule: values may come before it. Ends that are not written are not given here.
Experiments:
[1] = test system: GFP-HSF2BP; experiment: Co-immunoprecipitation of Flag-BRCA2 variants/fragments with GFP-HSF2BP WT; assay type: cell-based, human; details: transient HEK293T, anti-GFP beads, immunoblot
Excerpt: (§1) Expression constructs for producing point mutation and truncation variants of HS2BP and BRCA2 in human cells were engineered as described before[16] in the PiggyBac vectors by Gibson assembly. For transient expression into HEK293T cells plasmid DNA was transfected using calcium precipitation method or PEI transfection. For stable integration into HeLa cells, PiggyBac expression vectors were co-lipofected together with PiggyBac transposase plasmid (hyPBase[45]) with Lipofectamine 3000 (Thermo Fisher).
(§2) Cells were washed twice in ice-cold PBS and lysed in situ in NETT buffer (100 mM NaCl, 50 mM Tris pH 7.5, 5 mM EDTA pH 8.0, 0.5% Triton-X100) supplemented immediately before use with protease inhibitor cocktail (Roche) and 0.4 mg/ml Pefabloc (Roche) (NETT++); 450 µl NETT++ buffer was used per 145 mm dish ES cells, 1 ml for HeLa and HEK293T. After 5–10 min, cells were scraped off and collected in 1.5 ml microcentrifuge tubes; lysis was continued for additional 20–30 min on ice, then mixtures were centrifuged (15 min, 4 °C, 14,000 × g) and the supernatant (input) was added to washed anti-GFP beads (Chromotek). Beads and lysates were incubated 2–4 h at 4 °C while rotating, washed three times in NETT++ buffer and bound proteins were eluted by boiling in 2x Sample buffer. Immunoblotting was performed following standard procedures with the following antibodies: anti-GFP mAb (Roche, #11814460001), anti-GFP pAb (Abcam #ab290 and Invitrogen #A11122), anti-RAD51[46], anti-BRCA2 mAb Ab1 OP-95 (Millipore #OP95), anti-BRCA2 (Abcam #27976), anti-Flag (M2 antibody, Sigma, F3165 and F1804). For quantitative immunoblotting fluorescently labeled secondary antibodies were used: anti-mouse CF680 (Sigma #SAB460199), anti-rabbit CF770 (Sigma #SAB460215); membranes were scanned using Odyssey CLx imaging system (LI-COR).

[2] = target: T1, armadillo domain of HSF2BP, from aa 122 to aa 334 (ARM) (human, UniProt O75031 122-334); experiment: ITC; HSF2BP or ARM in the cell at 10-20 uM, BRCA2 fragment in the syringe at 40-100 uM; 293 K; 25 mM Tris pH 7.5, 250 mM NaCl, 5 mM beta-mercaptoethanol; two replicates; details: both partners purified
T1 construct: Free ARM is a dimer (SEC-MALS); four ARM with two F15X in the complex; A selenomethionine-labelled form was used for the deposited crystal structure; also called HSF2BP ARM; H3 (recombinant); source: E. coli BL21 DE3 Rosetta2, purified (HisTrap, TEV cleavage, SEC)
T1 sequence (looked up): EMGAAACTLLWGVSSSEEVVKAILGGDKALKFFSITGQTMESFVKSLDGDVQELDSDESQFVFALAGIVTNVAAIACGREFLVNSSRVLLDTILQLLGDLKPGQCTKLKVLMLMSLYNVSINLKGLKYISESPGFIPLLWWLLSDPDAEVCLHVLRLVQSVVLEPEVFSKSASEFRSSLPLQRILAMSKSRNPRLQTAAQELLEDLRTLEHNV

[3] = test system: BRCA2 (Flag-F9); experiment: Co-immunoprecipitation of GFP-HSF2BP variants with Flag-BRCA2 F9; assay type: cell-based, human; details: transient HEK293T / stable HeLa, anti-GFP beads, immunoblot
Excerpt: as §1, §2

[4] = target: T2, HSF2BP FL (Homo sapiens, UniProt O75031); experiment: ITC of BRCA2 fragments with full-length HSF2BP; assay type: binding; details: discussion statement, read-out: affinity of BRCA2 for HSF2BP
T2 construct: Human full-length HSF2BP WT and R200T were expressed; 6xHis-TEV (N, cleaved yes); made in house; host or cells: E. coli BL21 DE3 Rosetta2
T2 sequence (O75031 1-334): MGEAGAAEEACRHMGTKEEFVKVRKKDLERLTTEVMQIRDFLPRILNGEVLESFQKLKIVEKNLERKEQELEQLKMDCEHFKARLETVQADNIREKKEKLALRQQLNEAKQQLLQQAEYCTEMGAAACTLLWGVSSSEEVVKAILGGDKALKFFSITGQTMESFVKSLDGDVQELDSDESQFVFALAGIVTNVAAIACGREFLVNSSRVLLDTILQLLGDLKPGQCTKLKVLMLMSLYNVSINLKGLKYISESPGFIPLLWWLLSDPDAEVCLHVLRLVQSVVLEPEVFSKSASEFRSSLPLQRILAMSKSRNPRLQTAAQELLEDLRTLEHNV
Excerpt: Human full-length HSF2BP WT and R200T were expressed using a pETM11 (6xHis-TEV) expression vector in E. coli BL21 DE3 Rosetta2 cells, and purified as previously reported (Brandsma et al., Cell Rep 2019). The armadillo domain of HSF2BP, from aa 122 to aa 334, which we will further name ARM, was similarly expressed using a pETM11 (6xHis-TEV) expression vector in BL21 DE3 Rosetta2 cells and purified as full-length HSF2BP.
Human BRCA2 fragment F0 was expressed using a pET-22b expression vector as a fusion protein comprising BRCA2 from aa 2213 to aa 2342 (including mutation C2332T to avoid oxidation problems), a TEV site, a GB1 and 6xHis tag, in E. coli BL21 DE3 Star cells. The BRCA2 gene was optimized for expression in bacteria and synthesized by Genscript. In addition, smaller BRCA2 fragments were produced using the same strategy: FNMR and F15X corresponding to aa 2252 to aa 2342 and aa 2291 to aa 2343, respectively. The smallest fragment F15X∆12, from aa 2312 to aa 2342, was synthesized by Genecust.
ITC experiments were performed using a high-precision VP-ITC instrument (GE Healthcare) at 293 K. To characterize the interactions between HSF2BP and BRCA2 fragments (WT, variants), the proteins were dialyzed against 25 mM Tris pH 7.5, 250 mM NaCl, 5 mM β-mercaptoethanol. The HSF2BP (or ARM domain) was in the sample cell at 10–20 μM and was titrated by BRCA2 fragments at 40–100 μM, using 10 μL injections with 210 s intervals between each injection. The first 2 μL injection was ignored in the final data analysis. The integration of the peaks corresponding to each injection. the correction for the baseline and the fit were performed using the Origin 7.0 software provided by the manufacturer, to obtain the stoichiometry (N), dissociation constant (Kd), and enthalpy of complex formation (ΔH) for each interaction. Two replicates were performed for each experiment.

Molecule: F15: Flag-tagged BRCA2 fragment N2288-T2337 (NLLNEFDRIIENQEKSLKASKSTPDGTIKDRRLFMHHVSLEPITCVPFRT; also: Flag tag, end not given here)
- interaction with HSF2BP (co-precipitation) [1]: minimal interaction region

B1: S2309N: Flag-BRCA2-F9 variant (protein)
chain: GKRRGEPLILVGEPSIKRNLLNEFDRIIENQEKSLKASKNTPDGTIKDRRLFMHHVSLEPITCVPFRT
modifications: left off: Flag, end not stated, kept
notes: Flag-BRCA2-F9 variant
- interaction with HSF2BP (co-precipitation) [1]: either strongly decreased or abolished binding
- interaction with HSF2BP (co-precipitation) ([1]; listed as S2309): did not interact

B2: L2304K: Flag-BRCA2-F9 variant (protein)
chain: GKRRGEPLILVGEPSIKRNLLNEFDRIIENQEKSKKASKSTPDGTIKDRRLFMHHVSLEPITCVPFRT
modifications: left off: Flag, end not stated, kept
notes: Flag-BRCA2-F9 variant
- interaction with HSF2BP (co-precipitation) [1]: either strongly decreased or abolished binding

B3: P2329L: Flag-BRCA2-F9 variant (protein)
chain: GKRRGEPLILVGEPSIKRNLLNEFDRIIENQEKSLKASKSTPDGTIKDRRLFMHHVSLELITCVPFRT
modifications: left off: Flag, end not stated, kept
notes: Flag-BRCA2-F9 variant
- interaction with HSF2BP (co-precipitation) [1]: either strongly decreased or abolished binding
- interaction with HSF2BP (co-precipitation) ([1]; listed as P2329): did not interact

B4: R2318Q: Flag-BRCA2-F9 variant (protein)
chain: GKRRGEPLILVGEPSIKRNLLNEFDRIIENQEKSLKASKSTPDGTIKDQRLFMHHVSLEPITCVPFRT
modifications: left off: Flag, end not stated, kept
notes: Flag-BRCA2-F9 variant
- interaction with HSF2BP (co-precipitation) [1]: either strongly decreased or abolished binding
- interaction with HSF2BP (co-precipitation) ([1]; listed as R2318): did not interact

- Kd [2]: 10 nM and 9.4 nM
- dH [2]: -10.2 kcal/mol and -9.2 kcal/mol
- stoichiometry N [2]: 0.33 and 0.4
B5: Human BRCA2 fragment F15X (N2291-Q2342) (domain or fragment, UniProt P51587 2291-2342, looked up)
chain: NEFDRIIENQEKSLKASKSTPDGTIKDRRLFMHHVSLEPITTVPFRTTKERQ
notes: BRCA2, human, residues 2291-2342 (methods: aa 2291 to aa 2343); T2332 in the construct; The methods give aa 2291 to aa 2343, results and legend N2291-Q2342; A selenomethionine-labelled form was used for the deposited crystal structure; also called BRCA2 F15X; BRCA2 peptide; source: E. coli BL21 DE3 Star, purified (HisTrap, TEV cleavage, SEC); not shown: GB1, C-terminal, cleaved; His6, C-terminal, …

- binding to BRCA2 (co-precipitation) [3]: totally abolished binding
B6: R200H: GFP-HSF2BP point mutant (protein)
chain: MGEAGAAEEACRHMGTKEEFVKVRKKDLERLTTEVMQIRDFLPRILNGEVLESFQKLKIVEKNLERKEQELEQLKMDCEHFKARLETVQADNIREKKEKLALRQQLNEAKQQLLQQAEYCTEMGAAACTLLWGVSSSEEVVKAILGGDKALKFFSITGQTMESFVKSLDGDVQELDSDESQFVFALAGIVTNVAAIACGHEFLVNSSRVLLDTILQLLGDLKPGQCTKLKVLMLMSLYNVSINLKGLKYISESPGFIPLLWWLLSDPDAEVCLHVLRLVQSVVLEPEVFSKSASEFRSSLPLQRILAMSKSRNPRLQTAAQELLEDLRTLEHNV
modifications: left off: GFP, end not stated, kept
notes: GFP-HSF2BP point mutant

- binding to BRCA2 (co-precipitation) [3]: totally abolished binding
B7: R200C: GFP-HSF2BP point mutant (protein)
chain: MGEAGAAEEACRHMGTKEEFVKVRKKDLERLTTEVMQIRDFLPRILNGEVLESFQKLKIVEKNLERKEQELEQLKMDCEHFKARLETVQADNIREKKEKLALRQQLNEAKQQLLQQAEYCTEMGAAACTLLWGVSSSEEVVKAILGGDKALKFFSITGQTMESFVKSLDGDVQELDSDESQFVFALAGIVTNVAAIACGCEFLVNSSRVLLDTILQLLGDLKPGQCTKLKVLMLMSLYNVSINLKGLKYISESPGFIPLLWWLLSDPDAEVCLHVLRLVQSVVLEPEVFSKSASEFRSSLPLQRILAMSKSRNPRLQTAAQELLEDLRTLEHNV
modifications: left off: GFP, end not stated, kept
notes: GFP-HSF2BP point mutant

- binding to BRCA2 (co-precipitation) [3]: strongly decreased binding
B8: R277E: GFP-HSF2BP point mutant (protein)
chain: MGEAGAAEEACRHMGTKEEFVKVRKKDLERLTTEVMQIRDFLPRILNGEVLESFQKLKIVEKNLERKEQELEQLKMDCEHFKARLETVQADNIREKKEKLALRQQLNEAKQQLLQQAEYCTEMGAAACTLLWGVSSSEEVVKAILGGDKALKFFSITGQTMESFVKSLDGDVQELDSDESQFVFALAGIVTNVAAIACGREFLVNSSRVLLDTILQLLGDLKPGQCTKLKVLMLMSLYNVSINLKGLKYISESPGFIPLLWWLLSDPDAEVCLHVLELVQSVVLEPEVFSKSASEFRSSLPLQRILAMSKSRNPRLQTAAQELLEDLRTLEHNV
modifications: left off: GFP, end not stated, kept
notes: GFP-HSF2BP point mutant

- Kd [4]: 1 nM
B9: BRCA2: BRCA2 (fragment F0 measured by ITC) (protein)
chain: STYSKDSENYFETEAVEIAKAFMEDDELTDSKLPSHATHSLFTCPENEEMVLSNSRIGKRRGEPLILVGEPSIKRNLLNEFDRIIENQEKSLKASKSTPDGTIKDRRLFMHHVSLEPITTVPFRTTKERQ

- Kd [2]: 7.8 nM and 13 nM
- dH [2]: -9.6 kcal/mol and -9.4 kcal/mol
- stoichiometry N [2]: 0.47 and 0.51
B10: Human BRCA2 fragment FNMR (S2252-Q2342) (domain or fragment, UniProt P51587 2252-2342, looked up)
chain: SLFTCPENEEMVLSNSRIGKRRGEPLILVGEPSIKRNLLNEFDRIIENQEKSLKASKSTPDGTIKDRRLFMHHVSLEPITTVPFRTTKERQ
notes: BRCA2, human, residues 2252-2342; produced by the same strategy as F0 (C2332T); C2332T is stated for F0 and 'our construct'; FNMR was made 'using the same strategy'; source: E. coli BL21 DE3 Star, purified (HisTrap, TEV cleavage, SEC); not shown: GB1, C-terminal, cleaved; His6, C-terminal, cleaved
